In publication PMC8233204, “Cardiac myosin-binding protein C interaction with actin is inhibited by compounds identified in a high-throughput fluorescence lifetime screen” (The Journal of Biological Chemistry, 2021):
Read-outs that look alike come from different tables or passages of the source. One block for each compound: values may come before it.

Columns and labels:
ErIA-actin = biological target: T1, ErIA-actin (Oryctolagus cuniculus, UniProt P68135); assay: Transient phosphorescence anisotropy (TPA) of ErIA-actin alone; type: biochemical, rabbit; settings: concentration not given
T1 construct: Actin was prepared from rabbit skeletal muscle by extracting acetone powder; from tissue; host or cells: rabbit skeletal muscle (acetone powder)
Procedure: […] These were added together with glucose catalase/oxidase to prevent photobleaching, and TPA was performed at 25 °C to determine anisotropy values ([7]).

ErIA-actin + C0-C2 = biological target: T2, ErIA-actin + C0-C2 (Homo sapiens, UniProt Q14896); assay: Transient phosphorescence anisotropy (TPA) of ErIA-actin with C0-C2; type: biochemical; settings: 1 μM ErIA-actin, 2 μM C0-C2; actin alone 0.033 ± 0.001
T2 construct: N-terminal domains C0 through C2 (C0-C2), containing the proline/alanine-rich linker (P/A) and the M-domain (M); 6x His (N, cleaved yes); TEV protease cleavage site (N, cleaved yes); made in house; host or cells: E. coli BL21DE3 (C0-C2); actin purified from rabbit skeletal muscle
T2 sequence (Q14896 1-451 limits assumed): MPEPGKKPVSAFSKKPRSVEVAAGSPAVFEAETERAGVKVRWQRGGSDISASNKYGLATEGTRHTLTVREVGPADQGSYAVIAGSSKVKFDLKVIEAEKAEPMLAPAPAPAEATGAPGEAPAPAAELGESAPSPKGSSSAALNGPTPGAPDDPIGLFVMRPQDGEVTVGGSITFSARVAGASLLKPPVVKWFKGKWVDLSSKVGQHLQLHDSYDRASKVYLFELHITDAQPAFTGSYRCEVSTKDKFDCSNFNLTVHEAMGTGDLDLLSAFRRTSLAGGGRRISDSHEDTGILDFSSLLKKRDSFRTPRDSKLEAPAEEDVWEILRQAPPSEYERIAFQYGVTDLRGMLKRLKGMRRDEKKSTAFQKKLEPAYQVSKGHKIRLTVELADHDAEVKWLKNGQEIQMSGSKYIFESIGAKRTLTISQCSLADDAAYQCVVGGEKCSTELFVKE
Procedure: The same mixtures were tested in the presence of 2 μM C0-C2. These were added together with glucose catalase/oxidase to prevent photobleaching, and TPA was performed at 25 °C to determine anisotropy values ([7]).

[1] = biological target: FMAL-actin (F-actin from rabbit skeletal muscle labeled at Cys-374 with fluorescein-5-maleimide) (rabbit) (UniProt P68135); assay: FRET or BRET; TR-FRET; 1 μM F-actin labeled (to 10%) with FMAL (donor) with 0-20 μM TMR-C0-C2^Cys225 (acceptor) ±PKA; M-ABB
[2] = biological target: FMAL-actin (F-actin from rabbit skeletal muscle labeled at Cys-374 with fluorescein-5-maleimide) (rabbit) (UniProt P68135); assay: as above; remark: listed apart in the source

Compound: O=C(NCCO)c1cccc(-c2cc(Nc3ccc(OC(F)(F)F)cc3)ncn2)c1 [GNF-5]
- effect on actin anisotropy (TPA), control compound (ErIA-actin): does bind actin and changes its anisotropy

- actin's final anisotropy in the presence of C0-C2 (ErIA-actin + C0-C2): 0.071 ± 0.003
Compound: C0-C2: recombinant N-terminal fragment (domains C0 through C2) of human cMyBP-C

- Kd [1]: 8 µM
- Kd [2]: 3 µM
Compound: TMR-C0-C2^Cys225 phosphorylated by PKA (from UniProt Q14896 1-1274) (domain or fragment)
